The source of these data is the DeepSol protein solubility set.

The nature of this series: soluble on expression in E. coli; label from the status in PepcDB or PDB records.
On to “MGSDKIHHHHHHMLSLSKPLQEFYRLDKCLSKHGTRFEFVNDKEIICSPDESNTHTFVILEGVVSLVRGDKVLIGIVQAPFIFGLADGVAKKEAQYKLIAESGCIGYRLSSSQTLAIIEQNQLWREAFCWIVWKSQVLELRDKQLIGNNSYDQIRATLMTMIEWDEELRSRIGVMNYIHQRTRVSRSVVAEVLAALRKGNYIEMNKGKLISINRLPSEY”, for which the “soluble on expression in E. coli” value was “not soluble”.
With “MAHHHHHHMERVRYRSSVTRKLIDLYDEVAELYDCRENMRNQVTQAMRIDPRYCKERHGEVRLACKPTLQQQSAVESVENALEGLHDAVHELVAAYLTQEEKRHLGIDTHLFQTSTEKANTYQYAPPPPKPRSSSSNAARRARQKTSAAATFPHPSTRHREVRVEKEEGDAHENTAATAPTPAAPTLTVPVDTPAPQQQPLTNTTTNKKISNSVWDSSAPAASAAFSSAAISLPASSVKLAQQSVVELSQLAAPQQPVTSSSQPLCSSIVHVAAPEKHEDGSGTAAEQKPVAASHTQDTEIAEGTPERVVASAVSASTLSVTWPTDTGAGSTLHLPTGSQPPLATERLLKVPVSSPDALTPIAKTPPAIPPRPTSVQAQAQEPALTSANPTPPPSHPPSQDAVAASCNDASAAKASASQARTAVVGFKRFLIDSDSNSSC”, the “soluble on expression in E. coli” value was “soluble”.
As to “SGNTSSERTGMGQEKANRRDSRGTKEGDRPKILMDSPEDADIFHGEDLKAPLEKEEFIEWRPDLEGSEKTDTLDRPTVFRWTGAGKEVYISGSFNNWTNKIPLIRSQNNFVAIVDLPEGEHQYKFYVDGLWTHDPTEPVVTNQLGTVNNIIQVKKTDFEVFDALMVDSQKCSDMSDLSSSPPGPYHQDAYTPKQEEKFKSPPILPPHLLQVILNKDTGISCDPALLPEPNHVMLNHLYALSIKDGVMVLSATHRYKKKYVTTLLYKPI”, the “soluble on expression in E. coli” value is on record as “not soluble”.
Regarding “SLPMQHVHTSPVRDYRNRCARREGETVFQVVVEETDLRVTALAELATPMAAYVGELRAQLKVWMEFQPAFRHSLVPVEVPEGAPEVVRRMAHGARLVGVGPFAAVAGTIAQMVAERFVDVSPELIVENGGDLYLYSERDRVVGILPDPASGDMVGILVRAGTAPVSLCGSSARIGHSLSLGDGDLAVVRARDASLADAAATAFGNMLRRADDVAAVTERAAQLASIGIEGVYAQCGGRIGIWGDMELAVA”, the “soluble on expression in E. coli” value is on record as “soluble”.
For “MPADRVAFPPTLIGIELDPRQGLSKQLYEILRRQILDGRLSSGMRLPASRDLAKSLAISRNSVMRAFDQLYAEGFIEGRVGDGTYVAQLAGRHAALQRNAPGKLSTNLPTGLHTGLCTGLSTFAVENTQNLLNQVIHNPALQRVEKHHLNEPPDDRPKAFRVGVPAFDLFPFALWGKLYASFWRKPNLDQLGYGAAAGEWRLRELVAAYLRSSRGLGCTAEQIVITSGAQHAISLCAQLLVTPGEGVAVENPGYRAAGHAFALAGARLQGVAVDSEGMRCADLEQTDCRLAYVTPSHQYPTGVVMSLARRLELLAWAEKNQSWIVEDDYDGEYRYSGSPLAPLAALDQNGRVLYVGTFGKIVFPALRLGYLVLPEHLVRPFSQRKAVDMRHTEIGVQAVMAQFIAQGHFQRHIRRMRRAALSRRDALLAGWPDNVPGCAAMPKVVAGLHVMVKVDSVAREQALIAKARSVGVEMSPLSGYWLSDSDEPVDNRAGLVLGFAAVPEPAIADALNRLRMVWSE” the value was “not soluble”.
Regarding “MSLGILRQAHWRNPSLERSPALILAHGCFEDVHGKVAHGLVRGTDRFDIVAVIDPDCAGHDAGTLLDGRPRNIPVFASIEAALAQGRRRPAVAIVGMATHGGRFTETLRAALFEAAAAGLSLVNGLHDLAGDDPEIAAETARHGASILDLRRPRAVAELHFWTGQIHGVAAPRIAVLGTDCALGKRTTARLLTQALNADGIRTEMIYTGQTGWMQGGRYGFILDALPNDFVSGELEHAILTCYREVRPDLIILEGQSALRNPSGPCGAELLLSGAAAGVILQHAPGRRHYDGFEGSRFRIPPVEDEIRLIEHYGVPVLGVSLNGRDSGPEGLREAQRRLARTLDVPVVCPLEDGVTDLLPPLRALLEREEVAEGHHHHHH”, the “soluble on expression in E. coli” value is recorded as “soluble”.
Turning to “MGSDKIHHHHHHMSDAKLQSVLSSLSQVARQLDALPSDTPAPDSSWVKLNTNENPFPLPEIIMQSAIAALERQYLYPEDDNISLREAAANAYSVSMDQVIAGNGSSELLGLVYRAFLTPGDSVAMMSPGFSFNRKLATLQGAQFVEIEFSKDHSLPMEQLLFGPAKDAKFILLANPNNPTGTFVPVADIERLVAKSDRLIVLDEAYVDFAPENGLRLINRYSNLLVLRTFSKSYAAAGVRVGFGFGHPEIIGRLRNIQNVFNMNVIGQAVGISVLAHRAAYADNHRHIRHERRRVTLALSQLGFSVIPSHANFLLARVPTAQDGSWWQSAFARQKILVAVFPDKGLENYIRVSIGTKEQMDAFLRAASRISRILNMSTPPR”, the “soluble on expression in E. coli” value is “not soluble”.
